Data from the supplement of paper PMC11502859.

System: HEK293T
Experiment: median enrichment of reporter reads in eGFP-reduced (low/intermediate) vs eGFP-high sorted cells (eGFP-extension fusion abundance) (ratio); higher = stronger loss of eGFP-fusion protein abundance (more destabilising extension)
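Further: lentiviral eGFP-IRES-mCherry reporter pool sorted by FACS 96 h post-transduction, gated on mCherry-high cells, Illumina read counts normalized per million, median across four biological replicates.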

Substance | median enrichment
EKPSRRKNSLSQFSKEPRILQRMCEDFPVLDGE [SAMD7] | 1.53
LETIMKKRVHISISKS [CTLA4] | 37.7
KQIKLDEIYNYLIAQ [MDH1B] | 18.9
GSSC [KRTAP13-1] | 0.297
WNRIEQNRIE [PCSK5] | 0.778
QELARQLPLLHPQ [TECTB] | 0.3
LRLIIYQEC [PKIB] | 6.92
QQLRLHQRQHTKKL [BCAS3] | 1.16
LWRWWPRGGLLGGVGDKTGQTTGPPKTVKG [HS6ST1] | 11.4
YPV [HNRNPUL1] | 0.542
YKGRAQQCK [IRX2] | 0.955
SLREAC [ZNF672] | 0.708
CETHNFISHSDHRLLNIADRNRSLQGV [TAS2R13] | 2.12
FLQRTALIFRFKRLPTR [Degron UPS] | 6.83
CAQKS [LCE6A] | 0.549
SPAPHHPQEHSTHHRQPLETSYMSLGAEREVPSPCRTRSCMCLTQVWTGGHLGAGQGHPSLHIT [RABEPK] | 7.59
RRINLQRSRQDDLAAWGLLSPRNSHVGFPLPGWPLDLSSKPFLTSS [CHI3L2] | 6.12
RLMW [KRTAP13-3] | 3.36
QDLSIF [KCNJ13] | 0.364
KLDLII [OR4S2] | 1.99
QGTCPGSS [UBE2T] | 0.477
YQIYRVEGLIGEGRSSGSTQELDWKRSL [SON] | 9.11
DLASKKSCSVPCVLSFKGIFRINSDLEDSSVLQRLAFIFIVIMEMLSFILSYIRKKGVMQLISISLGNALVLFSSFLVPVTCL [CREB5] | 14
LPLVLYSNLFGNDSSTHRTACVRAHTHTHTHTHTHH [GNAO1] | 3.16
QNNVSYFSIKDHLKLLIPNIN [DMAC2L] | 12.2

Substance | median enrichment
LTSQST [ANGPT2] | 0.829
YIPVSIQKSNKKFSVKCAILLCVL [RPL11] | 0.764
CGPEASWVSLGPQKLIKE [PCP2] | 0.292
RDSRTKSLCMKLPTMNVMMLYTKVTRQLSLSGFRSVFGTSLSSTYSAHGNYKLYISFPIVFQNVFSTEHA [RUFY2] | 8.53
SPSASSRKNKKSRTWQVFSICCKYVY [FBXL13] | 8.34
LCFAEIFCSLRISETYL [SIM1] | 7.43
YELWGAHTPQSS [IL17A] | 1.09
QHYS [C4BPB] | 0.456
PPPPP [Pro05] | 0.529
QFKELKIHMHEP [WDR41] | 1.3
KKKKKKK [Lys07] | 0.751
YSPQAD [YAP1] | 0.413
WRATGPQQCEGSLAAHPAAGAQPLPGMRLSADGETATQSFGLCVCVCVCVCVCAHPRVPVCVRILPPGAEVPWVSPLLCNGLL [FGFR3] | 3.69
RDI [ACSM2A] | 0.259
QTSLHFILF [FABP1] | 24.1
QLYSTKIFKDWFLF [DIS3] | 11.1
WRSCAAQSQTPAPTTYFCYTQEHFRKLSQLIFCFSSMSILSVSHFEDFFSLLYLCFSFFGFYFVVLSVIFNVPKICTCSIKNV [HOOK3] | 2.08
RAS [ABCF2] | 0.408
WAVSLTCPGTPAPGLGRELTRTGCSQKAGPSLSPKPLLDLWRSCRLDREAVPLSSPSPSRASPWSFRSSFWGLFQVRRMEEGG [FOXN4] | 4.84
WCPGVCCLAHMSLL [CLSTN2] | 5.25
LNQSVFPACAELLI [ZP4] | 3.4
QKPYEYCEYGKAI [ZNF569] | 0.563
LQNPNLELPMLLSYKHTDSGYS [ATP11C] | 1.23
RQSWCCRPIGRSWKASGCVPAMSWHWQSWRRRRANPRAQRTLRKPAGAESCVGHPTRHPSSLRRPVGRQGSRGFALLLSSRVM [RAB15] | 3.13
SYEQNKTLRKINRQGSDLFLKNLRSVDSQED [PRKACB] | 2.01

Substance | median enrichment
CSQVGFA [TUSC3] | 0.572
YKCGKAFTKSSYCVQHLKFNTEQMQYKCNDSGRTFIILEGL [ZNF736] | 22.3
SQDLVGGTGNWGWEGGNKDIWPS [RNF25] | 1.76
YEISLPGWEERKWGCPGETRNLPSPGWGQGLC [HOXB13] | 3.71
QVRLVQEHKLPPSPSPPPPGPGLKQPEDSPRGWLSPAAGSAFTWGGGAGLTLNPPPRQVGEGSHHSKCL [SLC2A4RG] | 2.26
LSLTASLK [TEX35] | 1.49
LEHWDAHRPFPSAARRACCGIYCGEHCIGMSGKSLYNLLQPSHLYNSLILFSFHNKMVYKNRSVCDVIGSNHPVLSSHSSW [COX10] | 1.73
YAPL [SLC3A1] | 0.632
GTQSSLLAVDFPLLLEPPIKEIQRDSCRPEAEHTFMAGALRGVLDPAPGDTIHFYCFVVTRALQPVFLKNQGPLPPPLPWGET [PLOD1] | 6.78
QRRQMQTKAT [TWSG1] | 0.373
RSSPTKGPPETPGTISVSSHQTLALFLLLFGDLHCQNYQFQVNFVGEFPPPPSSGSPRSNVPPATFPLWPPAELICLSHRSWC [S100A7A] | 7.95
YVLCYNGVIVPKCPH [OR51F2] | 5.24
LNQS [CFH] | 0.385
LIHGAEG [SLC16A1] | 1.29
SLTVFHKEDV [ATP2A2] | 0.983
CLFCPHIFCFLGRMAEAWWLPPRSGTD [NR1H3] | 12.1
STSPAPLRTPPRLDGWAHASHWGPGSRRWAPTLGPRGAANHTGLRPSYPAPSPSTSTFTSPPFHFFLYVFFLLETDSIHIEYN [JUNB] | 4.9
TTTTTTTT [Thr08] | 0.414
STRRPSPQKP [ERBB2] | 0.591
YDHPTTRSAANSGLSLGVAPSLLLPLN [TRIB3] | 6.29
TTTTTTTTT [Thr09] | 0.552
CCP [RUBCNL] | 0.512
WALGLKSQLFLSCSV [DIRAS3] | 35.7
SRATGPQQCEGSLAAHPAAGAQPLPGMRLSADGETATQSFGLCVCVCVCVCVCAHPRVPVCVRILPPGAEVPWVSPLLCNGLL [FGFR3] | 6.49
RACGAAGAGEASRGRVLRQELDSPTLLSSRQGPGSHILLTLERLELTPLDGKCISEKGKAAWGSPI [SLC1A7] | 9.89

Substance | median enrichment
QYTF [PNISR] | 1.03
SAGAFVAISL [MSI2] | 3.7
QRHGVLGGLMGTGACIFCWGMKLITLL [AGBL4] | 4.93
QSTLTYFQKYNFRYHANFMTSKGCCYNVLTER [TDGF1] | 6.46
EPWPWAPPQGRASRNGDSPGTACPQRGGGHSWAPESLRVLPTEPLGWEGAGGLARTPTFASSSSCPAGRAPPCMMGKAILPLP [SCN1B] | 2.5
QEDFKVNFPSLFLN [CSN2] | 0.654
LWRSLVRRQDFSGLCLNGPHLNFSPFFLFLALGKASFYQTYRERKLQG [CTCF] | 9.53
SDQAVLEDRQIYTPHTHTTYTTHTRSHPLTHTLHRLLPYSWTFI [BMP4] | 9.46
KKKKKKRRKKLL [CCNT1] | 0.26
QSKQGRNVQVNNKSPHTLLTPWRQLLFRSFICLLQESFLPLT [SIRPD] | 4.67
KNAPSDLASKKSCSVPCVLSFKGIFRINSDLEDSSVLQRLAFIFIVIMEMLSFILSYIRKKGVMQLISISLGNALVLFSSFLV [CREB5] | 15.5
CRDLAERWRSHQGPRDNYQEQKPLPVPH [IGSF22] | 3.87
SFFFPSAS [KAT2B] | 2.2
YKKRCCLGLVGGACFS [HIGD1A] | 3.33
LAEEVGMGALCLLC [FGA] | 11.4
LLMMFQKPK [TGIF2LX] | 8.04
YCPGVCCLAHMSLL [CLSTN2] | 19.2
WGC [PIGN] | 0.651
EYPRFKKRT [PPP2R1B] | 1.16
KTCIHFLQTI [BACH1] | 2.97
KKK [Lys03] | 0.373
EGLPFPKPRVMSNCNQAQNQRPGCEIHTSLELVVSSWPQQLFPVLTG [PHF11] | 7.37
KHLHVLSNFACPFSSVSE [CYB5R2] | 2.44
LTYLSLSRSQAVRGNRSHLLSLQASVCLCLRTWILDFNDAVDNDGRKGVGC [MGA] | 8.5
SLKPITVLTAQWN [KCNA2] | 10.7

Substance | median enrichment
FGHSRTGERQLYFSLGQLQRVGQALMGSDCQSDAVGPRQRKAGRRGARTFSPHCPFPFSGEHRRLLTPTSCEAVAYGVQRSWS [C16orf58] | 4.42
LDAIWIWGLGVCVGGGIKWLWAGLSFPTAGCHIYTISLVRFLYKNLLLT [LSMEM2] | 15.5
SEEPQDHTHSPYPPQDYRTFWHTLYRVLGFTPQNDPTMSTHHQNPANGPPLPPSPDAEMVMGSWRVGSEMKGTPQWAAGPIFP [SLC13A5] | 3.6
RICKRRRHDVLCLH [MED12L] | 13.4
NNN [Asn03] | 0.227
YHAPRLEGRNSRLQNRHEMVWPCDYTL [TRMT44] | 1.98
HHHH [His04] | 0.323
GHPTPVPWRGSGPTLHNCLSRTVQTKGPAWKE [SLC37A1] | 2.83
QPWGWTVDPTSLREGGMAGCEDNSS [POLR3H] | 0.421
AAAAAA [Ala06] | 8.25
YILPEDKEKSKYCIGT [IRAK3] | 9.91
LPARPHGQPVASCRPHSPGTVSCLCVRPPLPCLLRHPPPHIHTQRFDKLLVFNE [SMTN] | 7.46
CHRGKRRKSC [CLDN1] | 0.437
WLQNY [IFNAR2] | 10.5
SGSIFLIDEKNNSVMAIYPC [NDUFA1] | 9.19
YPGSFYGHE [ZNF700] | 0.482
LEVVFGVQLLPCTFSLLLSSSTPNRENLGVSGSIWALIYSPSFLSML [ZNF774] | 9.71
EPSPPLLCVGTGGPWPVPGHSGQGPRDISTRSWRAVRIHSACPALAGQRQGRTFGKTKTVGDRVCVYLCVSVSVCERELVSLK [TCF15] | 6.39
CCCC [Cys04] | 2.06
SGLQGRQLSFV [SYT17] | 0.686
SPYPVPRCTNRWGPAPFLPGPHGPLSQEPRPLTSCPLEMVQHSGIYHPHLGPLQPPIKG [MYH14] | 5.6
SCNPTRAHFIIAETSVCIPVITHCNRATN [IDO1] | 4.95
LPLARSLPSVHRSQFHRWRRCLR [PIPOX] | 10.5
